From US20130309252A1 (UNIVERSITE DE LA MEDITERRANEE AIX MARSEILLE II, published 2013)
Where no end group is shown, it is not given here.

What was measured:
[1] = target: T1, Grasp55 (Golgi reassembly-stacking protein of 55 kDa), endogenous mouse protein in cell lysates (murine, UniProt Q99JX3 2-451, limits assumed); assay: co-immunoprecipitation, anti-GRASP55 blot
T1 construct: Endogenous protein detected by mass spectrometry or anti-GRASP55 blot
Protocol: (§1) Total cell lysates were used as controls. Proteins were then resolved on SDS-PAGE and blotted with anti-GRASP55 antibody. Arrows indicate the signal corresponding to Grasp55.
Protein concentration of the samples was determined according to the Bradford method.

[2] = target: T1, Grasp55 (Golgi reassembly-stacking …); assay: peptide pull-down of KLN205 lysates, mass spectrometry
Excerpt: As control, the same peptides, but deleted of the last three amino-acids known as the functional PDZ binding motif of JAM family members, were used.

[3] = target: Grasp55 PDZI′ (1-107), yeast two-hybrid construct (murine, UniProt Q99JX3 1-107); assay: yeast two-hybrid, growth on selective medium
Excerpt: (§2) The different GRASP55 constructs were cloned into pGBT9 GW vector (Ga14 DNA-binding domain fusion vector, Trp) as well in the pACT2 GW vector (Gal4 DNA-activation domain fusion vector, Leu) using the Gateway technology (Invitrogen). Plasmids were then co-transformed in AH109 yeast strain (/MATa, trp1-901, leu2-3, 112, ura3-52, his3-200, gal4/A, /gal80/A, /LYS2::GAL1//UAS//-GAL1//TATA//-HIS3, GAL2//UAS//-GAL2//TATA//-ADE2, URA3::MEL1//UAS//-MEL1//TATA//-lacZ, MEL1/) in accordance with the previously described transformation protocol (Chien et al. 1991. Proc Natl Acad Sci USA. 88:9578-82). Following co-transformation with the two vectors containing the different constructs (as well as the empty vector to test self activation), yeasts were plated onto Synthetic Complete (SC) medium minus Leucine (−L), minus Tryptophan (−W), minus Histidine (−H) and incubated at 30° C. for 4 to 5 days. All yeast media were prepared as previously described.
(§3) GST fusion proteins were produced and yeast two-hybrid assay was performed as previously described in example 1.

[4] = target: Grasp55 PDZII′ (108-208), yeast two-hybrid construct (murine, UniProt Q99JX3 108-208); assay: yeast two-hybrid, growth on selective medium
Excerpt: as §2, §3

[5] = target: T2, Grasp55 PDZII (80-160), yeast two-hybrid construct (murine, UniProt Q99JX3 80-160); assay: yeast two-hybrid, growth on selective medium
T2 construct: also called isolated second PDZ domain
Excerpt: as §2, §3

[6] = target: Grasp55 PDZI′ + II′ (1-208), yeast two-hybrid construct (murine, UniProt Q99JX3 1-208); assay: yeast two-hybrid, growth on selective medium
Excerpt: as §2, §3

[7] = target: Grasp55 PDZI + II (1-160), yeast two-hybrid construct (murine, UniProt Q99JX3 1-160); assay: yeast two-hybrid, growth on selective medium
Excerpt: as §2, §3

[8] = target: T3, Grasp55 PDZI (1-79), yeast two-hybrid construct (murine, UniProt Q99JX3 1-79); assay: yeast two-hybrid, growth on selective medium
T3 construct: also called isolated first PDZ domain
Excerpt: as §2, §3

[9] = target: T4, Grasp55 FL, yeast two-hybrid construct (murine, UniProt Q99JX3 1-451); assay: yeast two-hybrid, growth on selective medium
T4 construct: Gal4 fusion expressed in yeast AH109; also called wt Grasp55
Excerpt: as §2, §3

GST-GRASP55 PDZ I = target: T5, GST-GRASP55 PDZ I (murine); assay: ELISA, GST fusion on glutathione plate, biotinylated peptide
T5 construct: also called PDZ I of Grasp55; PDZI (1-79)
T5 sequence (chain, as listed by the source): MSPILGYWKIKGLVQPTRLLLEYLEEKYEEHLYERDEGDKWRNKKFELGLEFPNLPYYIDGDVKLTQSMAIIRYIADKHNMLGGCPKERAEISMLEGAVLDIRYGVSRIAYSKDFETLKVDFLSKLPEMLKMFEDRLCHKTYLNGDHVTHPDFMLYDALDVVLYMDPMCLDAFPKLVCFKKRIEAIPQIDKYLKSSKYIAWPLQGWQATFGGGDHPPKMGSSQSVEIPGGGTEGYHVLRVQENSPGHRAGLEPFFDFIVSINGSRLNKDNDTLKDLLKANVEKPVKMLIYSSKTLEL
Protocol: (§4) Ninety-six well plates coated with glutathione were incubated overnight with various GST fusion proteins. The plates were then washed, blocked and incubated with JAMs biotinylated peptides with or without PDZ binding motif. […] Results are expressed as Mean+/−SEM of Relative Unit of absorbance measured at 450 nm. […] One representative experiment is shown.
(§5) To set up ELISA test, various proteins of soluble GST-GRASP55 proteins were incubated on ninety-six-well plates (Nalge Nunc International) coated with glutathione. Plates were then washed and blocked with buffer containing PBS and 2% of bovine albumin for 2 hours. […] After three successive washes, streptavidin-HRP was added to reveal the various complexes, followed by a HRP substrate, tetramethylbenzidine (TMB). Absorbance (OD_{450 nm}) was determined on an ELISA POLARstar reader.

[10] = target: T6, GST-PDZI′ recombinant Grasp55 protein (murine); assay: HTRF competition against biotinylated JAM-C peptide
T6 construct: also called Grasp-GST-PDZI′; PDZI′-GST-construct
T6 sequence (chain, as listed by the source): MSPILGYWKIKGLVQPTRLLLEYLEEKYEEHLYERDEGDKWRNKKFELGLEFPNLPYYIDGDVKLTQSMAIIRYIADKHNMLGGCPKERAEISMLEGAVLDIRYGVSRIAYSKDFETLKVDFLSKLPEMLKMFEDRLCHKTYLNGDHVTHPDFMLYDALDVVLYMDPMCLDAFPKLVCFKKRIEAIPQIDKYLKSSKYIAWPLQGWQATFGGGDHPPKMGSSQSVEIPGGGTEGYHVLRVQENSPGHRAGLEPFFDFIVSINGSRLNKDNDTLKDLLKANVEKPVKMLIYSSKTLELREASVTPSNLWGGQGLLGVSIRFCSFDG
Protocol: (§6) In some experiments, competing peptide or chemicals were added to the incubation mix at the indicated concentration. After incubation, microtiter plates (Costar #3693) were red using PolarScan Omega (BMG Labtech) equipped for HTRF measurements. Upon excitation at 320 nm, a 620 nm fluorescence emission is produced by the donor terbium that in turn excites a 665 nm light emission by a Streptavidin-d2 (acceptor) bound to the Biotinylated interacting Peptide if the latter is interacting with the donor. The […] R ratio is obtained and a Delta F is computed as: [(Rₛₐₘₚₗₑ−RNSB)/RNSB]*100 where RNSB is the Non Specific Background signal determined in incubates where the GST-fusion protein was omitted.

GST-GRASP55 PDZ I+II = target: T7, GST-GRASP55 PDZ I+II (murine); assay: ELISA, GST fusion on glutathione plate, biotinylated peptide
T7 construct: also called PDZ I+II of Grasp55; PDZI+II (1-160)
T7 sequence (chain, as listed by the source): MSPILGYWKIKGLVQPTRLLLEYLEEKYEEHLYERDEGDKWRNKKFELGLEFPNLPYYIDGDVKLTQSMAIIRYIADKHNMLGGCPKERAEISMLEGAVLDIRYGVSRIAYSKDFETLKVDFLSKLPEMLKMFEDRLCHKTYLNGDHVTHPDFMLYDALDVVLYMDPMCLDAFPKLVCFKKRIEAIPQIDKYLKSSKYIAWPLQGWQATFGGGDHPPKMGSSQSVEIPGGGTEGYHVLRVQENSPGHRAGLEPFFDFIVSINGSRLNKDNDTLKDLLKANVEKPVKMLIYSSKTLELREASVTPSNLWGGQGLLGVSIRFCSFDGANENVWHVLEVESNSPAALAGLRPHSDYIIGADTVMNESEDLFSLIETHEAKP
Protocol: as §4, §5

[11] = target: T8, GST-PDZI′+II′ recombinant Grasp55 protein (murine); assay: HTRF
T8 construct: also called Grasp-GST-PDZI′+II′
Protocol: as §6

[12] = target: T6, GST-PDZI′ recombinant Grasp55 protein; assay: HTRF
Protocol: as §6

[13] = target: T1, Grasp55 (Golgi reassembly-stacking …); assay: peptide pull-down of cell lysates, anti-GRASP55 blot
Excerpt: as §1

B1: JAM-A, endogenous mouse protein immunoprecipitated with rat mAb H202 (receptor)
chain: KGSVYTAQSDVQVPENESIKLTCTYSGFSSPRVEWKFVQGSTTALVCYNSQITAPYADRVTFSSSGITFSSVTRKDNGEYTCMVSEEGGQNYGEVSIHLTVLVPPSKPTISVPSSVTIGNRAVLTCSEHDGSPPSEYSWFKDGISMLTADAKKTRAFMNSSFTIDPKSGDLIFDPVTAFDSGEYYCQAQNGYGTAMRSEAAHMDAVELNVGGIVAAVLVTLILLGLLIFGVWFAYSRGYFETTKKGTAPGKKVIYSQPSTRSEGEFKQTSSFLV
notes: also called junctional adhesion molecule A
binding result [1]: binds

B2: JAM-C, endogenous mouse protein immunoprecipitated with rat mAb 19H36 (receptor)
chain: EAVNLKSSNRNPVVHEFESVELSCIITDSQTSDPRIEWKKIQDGQTTYVYFDNKIQGDLAGRTDVFGKTSLRIWNVTRSDSAIYRCEVVALNDRKEVDEITIELIVQVKPVTPVCRIPAAVPVGKTATLQCQESEGYPRPHYSWYRNDVPLPTDSRANPRFQNSSFHVNSETGTLVFNAVHKDDSGQYYCIASNDAGAARCEGQDMEVYDLNIAGIIGGVLVVLIVLAVITMGICCAYRRGCFISSKQDGESYKSPGKHDGVNYIRTSEEGDFRHKSSFVI
notes: also called junctional adhesion molecule C
binding result [1]: binds

B3: JAM-B, endogenous mouse protein immunoprecipitated with rat mAb JB4 (receptor)
chain: FSASKDHRQEVTVIEFQEAILACKTPKKTTSSRLEWKKVGQGVSLVYYQQALQGDFKDRAEMIDFNIRIKNVTRSDAGEYRCEVSAPTEQGQNLQEDKVMLEVLVAPAVPACEVPTSVMTGSVVELRCQDKEGNPAPEYIWFKDGTSLLGNPKGGTHNNSSYTMNTKSGILQFNMISKMDSGEYYCEARNSVGHRRCPGKRMQVDVLNISGIIATVVVVAFVISVCGLGTCYAQRKGYFSKETSFQKGSPASKVTTMSENDFKHTKSFII
notes: also called junctional adhesion molecule B
binding result [1]: binds

B4: biotinylated JAM-B control peptide, last 19 amino-acids deleted of the last three amino-acids (peptide)
peptide: SKVTTMSENDFKHTKS
modifications: also: biotinylated (position not given here)
notes: also called JAM-BΔ
binding result [2]: no binding

B5: ADAM17 C-terminal sequence, yeast two-hybrid construct (other)
chain: CVDKKLDKQYESLSLFHHSNIEMLSSMDSASVRIIKPFPAPQTPGRLQALQPAAMMPPVSAAPKLDHQRMDTIQEDPSTDSHVDDDGFEKDPFPNSSTAAKSFEDLTDHPVTRSEKAASFKLQRQSRVDSKETEC
notes: not shown: Gal4 domain of the two-hybrid vector
binding result [3]: no binding | binding result [4]: no binding | binding result [5]: binds | binding result [6]: no binding | binding result [7]: no binding | binding result [8]: no binding

B6: JAM-C cytoplasmic C-terminal construct, yeast two-hybrid (other)
chain: ICCAYRRGCFISSKQDGESYKSPGKHDGVNYIRTSEEGDFRHKSSFVI
notes: also called JAM-C C-terminal region; not shown: Gal4 domain of the two-hybrid vector
binding result [3]: binds | binding result [4]: no binding | binding result [5]: no binding | binding result [6]: binds | binding result [7]: binds | binding result [8]: no binding | binding result [9]: binds

B7: JAM-B cytoplasmic C-terminal construct, yeast two-hybrid (other)
chain: TCYAQRKGYFSKETSFQKGSPASKVTTMSENDFKHTKSFII
notes: as for B5
binding result [5]: no binding | binding result [7]: binds | binding result [8]: no binding | binding result [9]: binds

B8: JAM-B ΔPDZbm, yeast two-hybrid construct lacking the last three amino-acids (other)
chain: TCYAQRKGYFSKETSFQKGSPASKVTTMSENDFKHTKS
notes: End at 295 worked out from 'deletion of the last three amino-acids' of 258-298; not shown: Gal4 domain of the two-hybrid vector
binding result [5]: no binding | binding result [7]: no binding | binding result [8]: no binding | binding result [9]: no binding

B9: biotinylated peptide corresponding to the last 19 amino-acids of JAM-C (peptide)
peptide: NYIRTSEEGDFRHKSSFVI
modifications: also: biotinylated (position not given here)
notes: also called JAM-C peptide; biotinylated JAM-C
binding result (GST-GRASP55 PDZ I): no binding

B10: non-biotinylated (unlabelled) JAM-C peptide (peptide)
peptide: NYIRTSEEGDFRHKSSFVI
notes: also called JAM-C unlabelled peptide
fold increase in EC50 against GST-PDZI′+II′ and GST-GraspFL [10]: 20 fold

B11: biotinylated JAM-C control peptide ΔPDZbm, lacking the last three amino-acids (peptide)
peptide: NYIRTSEEGDFRHKSS
modifications: also: biotinylated (position not given here)
notes: also called JAM-CΔ
binding result (GST-GRASP55 PDZ I+II): no binding | binding result [11]: no binding (tested: 1.9*10^-7M peptide) | binding result [12]: no binding (tested: 1.9*10^-7M peptide) | binding result [13]: no binding

B12: ADAM10 C-terminal sequence, yeast two-hybrid construct (other)
chain: FIKICSVHTPSSNPKLPPPKPLPGTLKRRRPPQPIQQPPRQRPREYQMGHMRR
notes: as for B5
binding result [3]: no binding | binding result [4]: no binding | binding result [8]: no binding

B13: JAM-C ΔPDZbm, yeast two-hybrid construct lacking the last three amino-acids (other)
chain: ICCAYRRGCFISSKQDGESYKSPGKHDGVNYIRTSEEGDFRHKSS
notes: End at 307 worked out from 'deletion of the last three amino-acids' of 263-310; not shown: Gal4 domain of the two-hybrid vector
binding result [3]: no binding | binding result [4]: no binding | binding result [5]: no binding | binding result [6]: no binding | binding result [7]: no binding | binding result [8]: no binding | binding result [9]: no binding

B14: JAM-A ΔPDZbm, yeast two-hybrid construct lacking the last three amino-acids (other)
chain: AYSRGYFETTKKGTAPGKKVIYSQPSTRSEGEFKQTS
notes: End at 296 worked out from 'deletion of the last three amino-acids' of 260-299; not shown: Gal4 domain of the two-hybrid vector
binding result [5]: no binding | binding result [7]: no binding | binding result [8]: no binding | binding result [9]: no binding
